Results taken from patent publication US8318640B2, “Methods for selective targeting” (Danisco US Inc., priority 2000, dated 2012).
Square brackets hold non-standard residues; d marks the D form. Ends that are not written are not given here. 14C‑Gly = 14C-labelled glycine

Experiments:
(h) TNF-α [1] = biological target: T1, (h) TNF-α (Homo sapiens, UniProt P01375); assay: Selective targeting of a phage-displayed 7-mer library on TNF-α, PCR identification of bound clones; format: binding; parameters: purchased BioSource International; Camarillo, Calif; settings: number of multiple times this amino acid sequence occurred out of 24 clones sequenced; binds TNF-alpha and not SuperBlock
T1 sequence (P01375 77-233 limits assumed): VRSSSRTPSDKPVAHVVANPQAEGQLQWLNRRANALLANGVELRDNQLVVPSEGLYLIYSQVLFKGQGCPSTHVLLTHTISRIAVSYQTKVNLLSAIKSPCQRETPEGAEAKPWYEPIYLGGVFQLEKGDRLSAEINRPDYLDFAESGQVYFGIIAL
Method: A thin-walled PCR tube was coated with the target human (h) TNF-α (BioSource International; Camarillo, Calif.) by incubating 100 μl of 0.5 mg/ml purified TNF-α in PBS overnight at 4° C. in the PCR tube. Excess unbound TNF-α was removed, and the tube was coated overnight at 4° C. with 100 μl of SuperBlock™ blocking buffer (Pierce: Rockford, Ill.) in Tris buffered saline (TBS). The anti-target (SuperBlock™ blocking buffer) was prepared in separate PCR tubes coated overnight at 4° C. with 100 μl of SuperBlock™.
Unbound phage were removed by washing the tube 5 times with 150 μl PBS containing 0.1% Tween-20 at room temperature. Low affinity binders were washed away by incubating with 60 μl of 0.2 M Glycine (pH 2.2) for 6 minutes followed by neutralization with 9 μl 1 M Tris-Cl (pH 9.1). The acid washed population was retained for further analysis. The tube was then washed again 3 times with 150 μl of PBS.
To the remaining phage-peptides bound to the TNF-α, 54 μl of Lysis Buffer A (10 mM Tris-Cl, pH 8.4, 0.1% Triton-X100) and an AmpliWax™ PCR gem (Perkin Elmer, Norwalk, USA.) was added. The tube was heated at 95° C. for 15 min and then allowed to cool. The following PCR reagents were then added:
PCR amplification was performed using 20 cycles of denaturation at 94° C. for 15 sec, annealing at 55° C. for 20 sec, and extension at 72° C. for 30 sec. The sequences of the primers (synthesized by GIBCO BRL) were: […]
The PCR product (267 base pairs (bp)) was analyzed on an 8% polyacrylamide gel along with the PCR product from a single phage peptide clone (positive control) and molecular weight markers (FIG. 2). […] This was due to too much template (i.e. phage) in the PCR reaction, and can be alleviated by decreasing the phage concentration or by decreasing the number of PCR cycles (FIG. 3). To decrease the amount of the 500-700 bp diffuse band, the PCR product was diluted appropriately for subsequent PCR reactions from this starting material to generate more products for sub-cloning purposes. Once the desired product (267 bp) was amplified, it was digested with Eagl and Acc651 restriction endonucleases to produce a 45 bp fragment containing the DNA coding for the random peptide. The 45 bp fragment was then sub-cloned into the M13KE vector (New England Biolabs; Beverly, Mass.) at the EagI and Acc65I restriction sites using standard techniques (Sambrook, et al., (1989) supra). After ligating the 45 bp fragment into the M13KE vector, the ligation reaction was transformed into chemically competent ER2537 E. coli cells. The cells were made competent with calcium chloride using a standard protocol (Sambrook, et al., (1989) supra). The M13 DNA was isolated from various transformants using a modified protocol from New England Biolab's protocol for M13 DNA preparation and then sequenced. The modification includes the use of 96-well plates as opposed to tubes.

[2] = ELISA of biotinylated peptide binding to skin; parameters: species or system human; settings: 200 μM biotinylated peptide in 2% body wash; FIG. 9
Text: (§1) Peptide sequences identified in Examples 13 and 14 along with a random control peptide were C-terminally labeled with the sequence GGGK (biotin). The sequence LESTPKMK (SEQ ID NO: 115) contains the consensus sequence LEST and was isolated on hair. FTQSLPR (SEQ ID NO: 116) contains the consensus sequence TQSL and was isolated on skin. YGGFMTSE (SEQ ID NO: 117) is a control peptide.
(§2) Dark brown hair (3″ long, 4 each), moistened with 2% body wash and pre-equilibrated human skin tissues, were placed in the wells of a 24 well plate. 1 ml of a 200 μM solution of the biotinylated peptide in 2% Neutrogena body wash was added to the hair and skin samples and incubated 30 min at room temperature with gentle agitation. The solution was then pipetted off and the hair and skin samples transferred with clean tweezers to a 50 ml conical tube, washed once with 50 ml of 2% body wash, twice with 50 ml of water, and once with 50 ml of PBS; each wash step took 5 min and was performed on a rotary shaker at 20 rpm. The hair and skin samples were then transferred with clean tweezers to a fresh 24 well plate where 1 ml of streptavidin conjugated horseradish peroxidase (diluted 1/1000 in PBS) was added for 1 hr at room temperature under gentle rocking. Excess streptavidin HRP was removed by washing twice with 50 ml of PBS (5 min, 20 rpm each) in a 50 mL conical tube. […]

[3] = Ni-chelated peptide binding to collar soil on cotton or cotton alone, OPD/H2O2 absorbance assay
Method: A phage peptide sequence HTFQHQWTHQTR, (SEQ ID NO: 27) that binds to collar soil on cotton was identified after five rounds of biopanning as described in example 5 except that phage peptides were eluted by acid after each round using the methods described in Scott and Smith (1990) Science 249:386. The selectivity (stain vs. cotton binding) and affinity (koff) were measured for the corresponding peptide binding to collar soil as follows: A 1 mM solution of Ni chelated GGHTFQHQWTHQTR (SEQ ID NO: 28) was incubated with collar soil on cotton or cotton alone for 90 minutes at room temperature with shaking in a microtiter plate. A control peptide chelate Ni GGH was also tested under the same conditions. After pipeting off the incubation solution from the well, fabric swatches were rinsed in 200 μL water with shaking for 3 minutes. The residual bound peptide was assayed by adding 200 μL o-phenylenediamine (OPD) and 50 μL of 100 mM H2O2 and measuring the absorbance of the oxidized OPD at 420 nm. As summarized in Table 5 and FIG. 7, the selectivity ratio of stain binding to fabric is less than or equal to ≦3:1 and the affinity as measured by koff=1×10^−3 sec^−1.

[4] = Release of 14C-labeled peptide from collar soil on polyester cotton in Tide detergent, scintillation counting; format: binding
Method: Soiled shirt collars (65% polyester: 35% cotton) containing the target (collar soil) and anti-target along with the control anti-target (unstained polyester:cotton from the same shirt) were cut to a diameter of 7/32″ and placed into a 96-well microtiter plate (Millipore Corp., […] Durapore membrane; Cat. No. MAGV N22 50). Serial dilutions of a 400 μM stock solution of a soil targeting peptide SISSTPRSYHWT (SEQ ID NO: 20) and a peptide control NFFPTWILPEHT (SEQ ID NO: 78) both terminally labelled with ^14C-glycine were added to 1 g/L Tide detergent solutions (Procter and Gamble, Cincinnati, Ohio) and 60 μL aliquots were placed into the wells of the microtiter plate. The plate was incubated with shaking for 30 minutes at 32° C. followed by suction filtering of excess unbound radiolabeled peptide (Vacuum manifold; Millipore Corp. Cat. No. MAVM 096 OR). The samples were rinsed three times with 200 μL of distilled water, with shaking in between rinses, over a period of about 40 minutes. The remaining radioactivity bound to the samples was quantitated by liquid scintillation counting in a Wallac microbeta counter. […] This corresponds to a rate constant for release of the soil targeting peptide koff≦2×10^−4 sec^−1.

[5] = ELISA of biotinylated peptide binding to hair; parameters: species or system human; settings: 200 μM biotinylated peptide in 2% body wash; FIG. 9
Text: as §1, §2

(h) TNF-α [6] = biological target: T1, (h) TNF-α; assay: IAsys biosensor binding and dissociation of phage clone on immobilized TNF-α
Method: The binding and dissociation of phage clone A1, amino acid sequence: RYWQDIP; Table 1, (SEQ ID NO: 3) to TNF-α was monitored using an IAsys AutoPlus Biosensor following the Labsystems Affinity Sensors IAsys Protocol 2.4 ‘Immobilization to Protein Layer: Thiol coupling to avidin’ (Thermo BioAnalysis Corp. Franklin, Mass.). Two cuvettes were first coated with avidin and one (the control) was then blocked with biotin. This was followed by activation of the lysine groups. A 15 μl aliquot of a 1 mg/ml (h) TNF-α solution was added to each cuvette. […] After blocking and washing, phage clone A1, RYWQDIP (SEQ ID NO: 3) was added to give a final titer of 5×10^11 pfu/ml.
The dissociation of the phage from the TNF-α is very slow with the dissociation constant estimated as koff<10^−4 sec^−1 (10 mM HEPES/0.05% Tween). Washing with a 10× buffer concentrate (at the 70 min time point) only removed a small portion of the phage.

APEPILA (peptides screened from a phage display random peptide library) [Clone T2]
Frequency ((h) TNF-α [1]): 7

ASTVGGL (peptides screened from a phage display random peptide library) [Clone T6]
Frequency ((h) TNF-α [1]): 2

ATFPNQS (peptides screened from a phage display random peptide library) [Clone T5]
Frequency ((h) TNF-α [1]): 2

DMIMVSI (peptides screened from a phage display random peptide library) [Clone T3]
Frequency ((h) TNF-α [1]): 3

FTQSLPR (peptides screened from a phage display random peptide library)
ELISA binding to skin versus hair [2]: selectively targets skin and not hair

GGHTFQHQWTHQTR (peptides screened from a phage display random peptide library)
koff ([3]; Ni-chelated peptide, dissociation from collar soil and the corresponding cotton fabric): 0.001 s⁻¹
Affinity 10^−4 koff (sec^−1) ([3]; Table 5, Biopanning, 5 rounds of selection): 10 10^−4 sec^−1

GSISSTPRSYHWT ([14C‑Gly]SISSTPRSYHWT)
Affinity 10^−4 koff (sec^−1) ([4]; Table 5, Selective Targeting (PCR), 1 round of selection): ≦ 2 10^−4 sec^−1

LESTPKMK (peptides screened from a phage display random peptide library)
ELISA binding to hair [5]: binds to hair

NFFPTWILPEHT (peptides screened from a phage display random peptide library) [random peptide control, reference compound]
affinity or selectivity for stained fabric ([4]; 1 g/L Tide, same assay, FIG. 6B): no affinity or selectivity

RYWQDIP (peptides screened from a phage display random peptide library) [Clone T1]
koff (dissociation of the phage from the TNF-α) ((h) TNF-α [6]; 10 mM HEPES/0.05% Tween): < 10^−4 sec^−1
binding of phage to immobilized TNF-α ((h) TNF-α [6]; IAsys cuvette, final titer 5×10^11 pfu/ml): significant binding
Frequency ((h) TNF-α [1]): 8

SISSTPRSYHWT (peptides screened from a phage display random peptide library) [Clone C4]
total radiolabel remaining bound to the stained fabric ([4]; 1 g/L Tide, after rinsing for 40 minutes): greater than 50%
koff, rate constant for release of the soil targeting peptide ([4]; 1 g/L Tide, collar soil on polyester cotton): ≤ 0.0002 s⁻¹

TMLPYRP (peptides screened from a phage display random peptide library) [Clone T7]
Frequency ((h) TNF-α [1]): 2

WTPKPTQ (peptides screened from a phage display random peptide library) [Clone T4]
Frequency ((h) TNF-α [1]): 2
